Measurements taken from publication PMC5773487, “Harnessing insulin- and leptin-induced oxidation of PTP1B for therapeutic development” (Nature Communications, 2018).
Where a chain is given by its changes, count along the chain named. One block for each molecule: values may come before it.

Assays:
[1] = target: T1, PTP1B-OX : TRX1 trapping mutant complex (Homo sapiens, UniProt P18031); experiment: in vitro substrate trapping of PTP1B by thioredoxin trapping mutant; format: biochemical; details: chelerythrine 5 μM
T1 sequence (P18031 1-321 limits assumed): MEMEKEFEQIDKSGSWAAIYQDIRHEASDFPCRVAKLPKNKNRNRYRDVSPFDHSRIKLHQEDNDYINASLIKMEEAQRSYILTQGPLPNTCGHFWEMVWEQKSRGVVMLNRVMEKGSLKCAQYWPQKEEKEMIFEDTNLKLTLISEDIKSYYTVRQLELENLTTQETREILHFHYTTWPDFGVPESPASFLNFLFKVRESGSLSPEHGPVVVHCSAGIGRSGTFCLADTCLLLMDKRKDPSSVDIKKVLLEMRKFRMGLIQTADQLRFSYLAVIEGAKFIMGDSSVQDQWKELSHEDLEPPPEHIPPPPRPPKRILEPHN
Excerpt: Thioredoxin (TRX), which functions to reduce oxidized cysteines in target proteins, contains an essential CXXC motif, in which the first cysteine forms a mixed disulfide intermediate with an oxidized cysteine in the target protein. The second cysteine then serves a “resolving” function—it forms a disulfide bond with the first cysteine in the CXXC motif, with the resulting transfer of electrons leading to reduction of the target protein. We utilized an assay using a “trapping mutant” form of thioredoxin in which the second cysteine is mutated to serine, which stabilizes the mixed disulfide intermediate with the target substrate.
Recombinant variants of N-terminally His-tagged human TRX1 (0.1 mg, WT, and trapping mutant, C35S) were reduced with 20 mM DTT in 1 mL PBS on ice for 30 min, then desalted on a Sephadex PD-10 column. Ten μg each of TRX1-WT and TRX1-C35S proteins was used in the trapping experiment. PTP1B (40 μg ml^−1) was incubated with H2O2 (0, 0.1 and 0.5 mM) for 10 min at room temperature and excess H2O2 was removed by desalting. Reduced and oxidized forms of PTP1B (20 μg) were incubated with WT or trapping mutant TRX1 for 20 min at room temperature in the absence and presence of chelerythrine (5 μM) in 1 mL PBS. Ni-NTA beads were added and incubated for 1 h at 4 °C. […]

[2] = target: T2, reversibly oxidized TCPTP-mut2 (F39L/E41K/R43K) (Homo sapiens, UniProt P17706, E41K/F39L/R43K); experiment: in vitro binding assay (anti-HA co-immunoprecipitation)
T2 construct: PTP1B (1–321) and TCPTP (1–317) cloned in pET21b vector were used as templates; 6xHis (C); made in house; host or cells: E. coli BL21 (DE3)-RIL
T2 sequence (P17706 1-317 F39L/E41K/R43K): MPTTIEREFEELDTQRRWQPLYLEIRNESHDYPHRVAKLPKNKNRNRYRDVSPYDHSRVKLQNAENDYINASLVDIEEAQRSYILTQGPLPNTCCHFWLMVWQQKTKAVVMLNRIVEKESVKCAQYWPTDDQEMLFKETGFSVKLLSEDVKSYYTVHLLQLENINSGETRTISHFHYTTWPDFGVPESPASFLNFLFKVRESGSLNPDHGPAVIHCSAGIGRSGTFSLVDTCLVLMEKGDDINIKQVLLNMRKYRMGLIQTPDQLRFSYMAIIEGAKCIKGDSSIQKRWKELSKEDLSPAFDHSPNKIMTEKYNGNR
Protocol: Purified proteins (wt or mutant form of PTP1B or TCPTP (50 nM)) were reversibly oxidized with […] H2O2 followed by a buffer exchange using 0.5 mL Zeba spin desalting columns 7K MWCO (Thermo Fisher Scientific) to remove H2O2. Increasing concentration of purified HA-tagged scFv45 (0–10 µM) was incubated with oxidized proteins in binding buffer (20 mM HEPES, pH 7.4, 300 mM NaCl, 0.05% BSA, 0.05% Tween-20) for 2 h at 4 °C. Anti-HA agarose (Roche, 50% slurry equilibrated in the binding buffer) was added and incubated for 1 h at 4 °C. Protein complexes bound to anti-HA beads were immunoprecipitated and washed three times; first with lysis buffer followed by two more washes with wash buffer (25 mM HEPES, 100 mM NaCl pH 7.4, 0.05% BSA, 0.05% Tween-20, and protease inhibitors). The complexes were separated by SDS-PAGE and analyzed by immunoblotting.

PTP1B-CASA-mut2 = target: T3, PTP1B-CASA-mut2 (Homo sapiens, UniProt P18031, C215A/K39E/K41R/L37F/S216A); experiment: analytical size-exclusion chromatography; format: binding; details: excess or limiting molar ratios
T3 construct: PTP1B (1–321) and TCPTP (1–317) cloned in pET21b vector were used as templates; made in house; host or cells: E. coli BL21 (DE3)-RIL
T3 sequence (P18031 1-321 L37F/K39E/K41R/C215A/S216A limits assumed): T1 sequence (P18031 1-321 limits assumed) with L37F, K39E, K41R, C215A, S216A
Protocol: Recombinant PTP1B-CASA, PTP1B-CASA-mut2, and scFv45 were purified as described. Proteins were exchanged into freshly prepared 50 mM ammonium bicarbonate pH 8 (Fig. 2a; Supplementary Fig. 1) using 0.5 mL Zeba spin desalting columns 7K MWCO (Thermo Fisher Scientific) as per manufacturers protocol. Designated protein constructs or buffer equivalents were mixed at 1.1 or 1.4 molar excess (excess reciprocated for both PTP1B and scFv45) and incubated on ice 20 min prior to injection (20 µL injection loop; 4–10 µg total protein), separation, and detection on a Dionex Ultimate 3000 HPLC connected to an XBridge Protein BEH SEC 200 Å, 3.5 µm, 7.8 mm × 300 mm column (Waters) flowing 200 mM ammonium acetate pH 7.0 isocratically at 0.86 mL min^−1 and 25 °C, monitoring absorbance at λ 280 nm (Fig. 2a; Supplementary Fig. 1). Injections were performed intermittently with BEH200Å SEC Protein Standard Mix (amount corrected for 20 µL injection loop; Waters Corp.) to monitor peak resolution and retention time consistency among runs.

Molecule: COc1ccc2c(c[n+](C)c3c4cc5c(cc4ccc23)OCO5)c1OC [chelerythrine]
- complex formation between PTP1B-OX and thioredoxin substrate trapping mutant [1]: did not prevent complex formation

- binding to reversibly oxidized TCPTP-mut2 [2]: promote binding
- association with PTP1B-CASA-mut2 (PTP1B-CASA-mut2): unable to associate
B1: scFv45: recombinant conformation-sensor single-chain variable fragment antibody recognizing oxidized PTP1B (antibody, V domains shown)
VH: TVTLDESGGGLQAPGGALSLVCKASGFTFSSYDMGWIRQAPGKGLEYVAGITDNGRYASYGSAVDGRATISRDNGQSSVRLQLNNLRAEDTGTYYCARDDGSGWTGNSIDAWGHGTEVIVSE
VL: ALTQPSSVSANPGGTVKITCSGSSSAYGYGWYQQKSPGSAPVTVIYNNNKRPSNIPSRFSGSKSGSTGTLTITGVQAEDEAVYFCGSEDSSTDAIFGAGTTLTVL
